Laboratory results published in publication PMC11442470.

Target: GLS1 (endogenous, both KGA and GAC) (UniProt D3Z7P3)
Assay: IP of endogenous GLS1, blot PDZD8
Conditions: reference: wild type PDZD8; sites T527

Q: Which “binding against the reference” value does the source give for PDZD8 (from UniProt Q8NEN9) T527A here?
A: The value was “weaker”.
